Changes are numbered by the printed parent chain.
B1: SEQ ID NO 110 (designed binder)
chain: MLPAPKNLVVSRVTEDSARLSWTAPDAAFDSFFIGYLEPQPPGEAIYLTVPGSERSYDLTGLKPGTEYNVTIQGVKGGFPSYPLDASFTT
notes: FN3 domain
B2: SEQ ID NO 114 (designed binder)
chain: B1 chain with A24T, Y47S, T49Q, Y82S, D85F, S87V
notes: FN3 domain
B3: SEQ ID NO 140 (designed binder)
chain: B1 chain with Y47Q, T49E, Y82M, D85S, S87I
notes: FN3 domain
B4: SEQ ID NO 139 (designed binder)
chain: B1 chain with Y47Q, T49G, Y82H, D85N, S87N
notes: FN3 domain
B5: SEQ ID NO 126 (designed binder)
chain: B1 chain with Y47H, T49H, Y82I, D85H, S87N
notes: FN3 domain
B6: SEQ ID NO 142 (designed binder)
chain: B1 chain with Y47G, T49Q, Y82H, D85K, S87Q
notes: FN3 domain
B7: SEQ ID NO 173 (designed binder)
chain: B1 chain with F33H, G35V, L37H, Q40R, P42S, Y47H, T49Q, D85S, S87F
notes: FN3 domain
B8: SEQ ID NO 163 (designed binder)
chain: B1 chain with T49E, Y82F, D85K, S87A
notes: FN3 domain
B9: SEQ ID NO 123 (designed binder)
chain: B1 chain with Y47Q, T49W, Y82H, D85G, S87V
notes: FN3 domain
B10: SEQ ID NO 136 (designed binder)
chain: B1 chain with Y47W, T49H, Y82I, D85I, S87I
notes: FN3 domain
B11: SEQ ID NO 191 (designed binder)
chain: B1 chain with Y47I, T49A, Y82L, D85V
notes: FN3 domain
B12: SEQ ID NO 151 (designed binder)
chain: B1 chain with Y47Q, T49W, Y82R, D85Q, S87H
notes: FN3 domain
B13: SEQ ID NO 121 (designed binder)
chain: B1 chain with Y47A, T49W, Y82M, D85S, S87I
notes: FN3 domain

What follows are binders tested against T1, CD71 apical domain (UniProt P02786 189-383, limits assumed) (assay: solution ELISA).
T1 construct: domain: Apical domain
T1 sequence (P02786 189-383 limits assumed): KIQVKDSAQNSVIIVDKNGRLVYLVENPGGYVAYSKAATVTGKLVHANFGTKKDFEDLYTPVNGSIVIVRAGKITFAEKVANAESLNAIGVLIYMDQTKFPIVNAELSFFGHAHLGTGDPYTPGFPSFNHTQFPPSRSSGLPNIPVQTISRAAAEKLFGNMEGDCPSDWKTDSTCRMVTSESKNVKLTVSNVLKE

Point of comparison: B8, “Apical domain, RLU” value 74500 RLU. Against it:
- B1 — higher, 803000 RLU
- B2 — higher, 6.22e+06 RLU
- B3 — higher, 317000 RLU
- B4 — higher, 1.86e+06 RLU
- B5 — higher, 4.42e+06 RLU
- B6 — higher, 4.36e+06 RLU
- B7 — higher, 1.8e+06 RLU
- B9 — higher, 4.78e+06 RLU
- B10 — higher, 4.77e+06 RLU
- B11 — higher, 4.66e+06 RLU
- B12 — higher, 4.04e+06 RLU
- B13 — higher, 6.18e+06 RLU

The binders below were run against T2, recombinant biotinylated human CD71 extracellular domain (human, UniProt P02786 89-760, biotinylated) (assay: solution ELISA).
T2 construct: extracellular domain; also called hCD71; huCD71 ECD
T2 sequence (P02786 other isoform, or with tags, fused parts or gaps): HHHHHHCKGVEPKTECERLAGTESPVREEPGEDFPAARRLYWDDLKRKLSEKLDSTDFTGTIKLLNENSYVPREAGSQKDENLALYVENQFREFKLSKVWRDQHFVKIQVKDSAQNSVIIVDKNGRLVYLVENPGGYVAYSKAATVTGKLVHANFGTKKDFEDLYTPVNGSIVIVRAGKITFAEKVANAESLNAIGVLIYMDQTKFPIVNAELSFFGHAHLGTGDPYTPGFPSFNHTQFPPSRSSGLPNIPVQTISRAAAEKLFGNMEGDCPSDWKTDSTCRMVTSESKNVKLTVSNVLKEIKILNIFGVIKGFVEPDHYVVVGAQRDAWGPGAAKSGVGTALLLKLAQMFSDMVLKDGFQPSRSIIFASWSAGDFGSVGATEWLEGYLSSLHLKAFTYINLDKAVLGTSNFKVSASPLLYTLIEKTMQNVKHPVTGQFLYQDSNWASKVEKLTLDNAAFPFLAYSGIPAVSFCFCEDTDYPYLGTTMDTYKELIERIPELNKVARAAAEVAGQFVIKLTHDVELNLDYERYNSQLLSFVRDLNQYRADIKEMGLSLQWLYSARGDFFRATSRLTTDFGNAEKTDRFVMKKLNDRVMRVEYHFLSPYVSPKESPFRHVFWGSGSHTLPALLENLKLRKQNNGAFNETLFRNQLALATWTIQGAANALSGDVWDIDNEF

Point of comparison: B10, “hCD71, RLU” value 3.69e+06 RLU. Against it:
- B1 — lower, 636000 RLU
- B2 — lower, 2.6e+06 RLU
- B3 — lower, 603000 RLU
- B4 — lower, 1.13e+06 RLU
- B5 — lower, 2.74e+06 RLU
- B6 — lower, 2.97e+06 RLU
- B7 — lower, 1.49e+06 RLU
- B8 — lower, 313000 RLU
- B9 — lower, 1.25e+06 RLU
- B11 — higher, 3.86e+06 RLU
- B12 — lower, 1.23e+06 RLU
- B13 — higher, 4.77e+06 RLU

These binders were tested against T1, CD71 apical domain (assay: solution ELISA, signal ratio to HSA).

Point of comparison: B5, “apical domain:HSA” value 137. Against it:
- B1 — lower, 75.8
- B2 — higher, 289
- B3 — lower, 14.6
- B4 — lower, 121
- B6 — higher, 181
- B7 — lower, 80.4
- B8 — lower, 2.7
- B9 — higher, 163
- B10 — higher, 201
- B11 — higher, 143
- B12 — higher, 149
- B13 — higher, 348

These binders were tested against T2, recombinant biotinylated human CD71 … (assay: solution ELISA, signal ratio to HSA).

Point of comparison: B5, “hCD71:HSA” value 85. Against it:
- B1 — lower, 60
- B2 — higher, 121
- B3 — lower, 27.9
- B4 — lower, 73.8
- B6 — higher, 123
- B7 — lower, 66.5
- B8 — lower, 11.5
- B9 — lower, 42.7
- B10 — higher, 155
- B11 — higher, 119
- B12 — lower, 45.2
- B13 — higher, 269

Reference: US20220332795A1 (ARO BIOTHERAPEUTICS, published 2022)
